Experimental data: publication PMC7904728, “ITSN1 regulates SAM68 solubility through SH3 domain interactions with SAM68 proline-rich motifs”

Target: ITSN1 SH3D-His (UniProt Q15811-2 1063-1150)
Experiment: NMR; 300 uM SH3D, 1:1.2 molar ratio; shift perturbations in eight residues; EMSA: 20 mM Tris-HCl pH 7.4, 50 mM KCl, 1 mM Mg, room temperature, 5 min, 0.7% agarose 0.5x TBE; NMR: 298 K, protein dialyzed in 12 mM potassium
Conditions: protein: recombinant; tags: His (pET22b); single strand

Chain of ITSN1 SH3D-His (Q15811 1063-1150): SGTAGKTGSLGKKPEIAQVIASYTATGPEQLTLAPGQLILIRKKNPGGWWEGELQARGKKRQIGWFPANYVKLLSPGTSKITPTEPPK

Binder	binding result
CACACACACACA (ssDNA) [CA6]	binds
TTTTTTTTTTTT (ssDNA) [T12]	binds
